For test [1], the target named is T1, Recombinant human B7-H4 protein (R&D Systems #6576-B7-050) (human) (UniProt Q7Z7D3).
T1 sequence: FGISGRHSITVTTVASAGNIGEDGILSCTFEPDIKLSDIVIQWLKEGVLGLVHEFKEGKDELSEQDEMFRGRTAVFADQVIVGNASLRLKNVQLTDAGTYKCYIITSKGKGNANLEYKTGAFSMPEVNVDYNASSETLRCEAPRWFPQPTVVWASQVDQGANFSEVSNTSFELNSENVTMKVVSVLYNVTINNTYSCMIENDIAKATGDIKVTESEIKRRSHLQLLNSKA
Description: ELISA, coated recombinant human B7-H4. In general terms: An ELISA detects its analyte on a solid surface through an enzyme-linked reagent.

Test [2] has as its target T1, Recombinant human B7-H4 protein (R&D Systems #6576-B7-050) (human). Description: ELISA, coated recombinant human B7-H4. This is another data set of the same source.
Test [3] shares this target. Briefly: BLI (Octet), antibody on anti-human Fc sensor, human B7-H4 in solution, 25 C. A general note: BLI is a label-free optical method that tracks binding on a fibre tip over time.
In test [4] the target is T2, Human B7-H4 on the cell surface (MX-1, HCC1569, CAMA-1 cells; HEK-293 cells stably transfected with human B7-H4) (human) (UniProt Q7Z7D3).
T2 sequence: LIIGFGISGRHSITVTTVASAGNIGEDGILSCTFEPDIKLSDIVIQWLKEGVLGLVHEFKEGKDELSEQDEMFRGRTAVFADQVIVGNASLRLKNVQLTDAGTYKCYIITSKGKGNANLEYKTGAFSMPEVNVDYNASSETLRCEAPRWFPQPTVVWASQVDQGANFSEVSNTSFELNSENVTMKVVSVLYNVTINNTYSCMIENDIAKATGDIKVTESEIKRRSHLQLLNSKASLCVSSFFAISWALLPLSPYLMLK
Description: flow cytometry, MX-1 cells. In general terms: Flow cytometry measures light scatter and fluorescence of single cells or particles in a stream.

Test [5] concerns the target T1, Recombinant human B7-H4 protein (R&D Systems #6576-B7-050) (human). Briefly: BLI (Octet).
For test [6], the target named is T2, Human B7-H4 on the cell surface (MX-1, HCC1569, CAMA-1 cells; HEK-293 cells stably transfected with human B7-H4) (human). Briefly: flow cytometry, HCC1569 cells.
Test [7] has the same target. Briefly: flow cytometry, MX-1 cells. This is another data set of the same source.

Where two headings read alike, the source gives them in different places.

B1: 1D11 antibody (antibody, from another filing, V domains shown)
VH: QVQLQQSGAELVRPGTSVKMSCKASGYTFTSYWIGWAKQRPGHGFEWIGDIYPGGGYTNYNEKFKGKATLTADKSSSTAYMQFSSLTSEDSAIYYCARLDGSSYRGAMDSWGQGTSITVSS
VL: DIQMTQSPSSLSASLGGKVTITCKASQGFNKYVAWYQHKPGQCPRLLIHYTSTLQPGIPARFSGSGSGRDYSFSISNLEPEDSATYFCLQYGNLLYAFGGGTKLEIKR
Usually EC50 stands for the concentration that produces a half-maximal response. By Kd is commonly meant the equilibrium constant for the complex coming apart. In general, koff refers to the rate constant with which the complex falls apart. One may read the kon as the second-order rate constant of association. B1: the concentration for a half-maximal effect (EC50) in test [1] was 0.52 nM; in test [2], 0.86 nM; in test [4] it was 8.83 nM; in test [6], 3.44 nM; in test [7] it was 4.9 nM. Also, the Kd in test [3] is 0.117 nM. Also, in test [3], the koff came to 1.46e-05 s⁻¹. Further, in test [3], the kon was 125000 M⁻¹ s⁻¹. Further, the fold difference of kon against B7-H4 2F9 and variant antibodies in test [5] was less than 2 fold. Also, the fold lower Kd than B7-H4 2F9 in test [5] was more than 100 fold.

These data come from patent US20240269306A1, “B7H4-TARGETED ANTIBODY-DRUG CONJUGATES AND METHODS OF USE THEREOF” (Mersana Therapeutics, Inc., priority 2021, published 2024).
